Source: PMC3229523, “Identification of Lactoferricin B Intracellular Targets Using an Escherichia coli Proteome Chip” (PLoS ONE, 2011)
Ends that are not written are not given here. * marks the point of attachment. Biotin = O=C1N[C@H]2[C@H](CS[C@H]2CCCCC(=O)*)N1

How the values were obtained:
Test in all cases: peptide or protein array; E. coli proteome chip: purified His-tagged proteins printed in duplicate on Fullmoon slides, blocked with 1% BSA; 10 nM N-terminal biotinylated LfcinB with 1% BSA, room temperature, 1 h; detected with DyLight 649-labeled streptavidin, ratio to DyLight 549-labeled anti-His antibody; ProCAT normalisation, local cut-off; triplicate chips
Conditions in all cases: both partners purified
[1] = target: T1, HolC (E. coli K-12, UniProt P28905 1-147)
T1 construct: HolC, E. coli K-12

[2] = target: MalP (E. coli K-12, UniProt P00490 1-797)
[3] = target: T2, YibA (E. coli K-12, UniProt P0ADK6 1-280)
T2 construct: YibA, E. coli K-12
T2 sequence (looked up): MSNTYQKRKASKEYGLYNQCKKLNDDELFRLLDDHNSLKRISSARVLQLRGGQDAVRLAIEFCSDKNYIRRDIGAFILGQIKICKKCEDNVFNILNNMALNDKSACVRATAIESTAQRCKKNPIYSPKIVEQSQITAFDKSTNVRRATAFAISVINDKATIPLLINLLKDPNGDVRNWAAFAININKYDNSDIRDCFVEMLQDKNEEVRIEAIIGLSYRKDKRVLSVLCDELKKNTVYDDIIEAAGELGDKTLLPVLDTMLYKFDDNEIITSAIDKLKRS

[4] = target: T3, ArgH (E. coli K-12, UniProt P11447 1-457)
T3 construct: ArgH, E. coli K-12
T3 sequence (looked up): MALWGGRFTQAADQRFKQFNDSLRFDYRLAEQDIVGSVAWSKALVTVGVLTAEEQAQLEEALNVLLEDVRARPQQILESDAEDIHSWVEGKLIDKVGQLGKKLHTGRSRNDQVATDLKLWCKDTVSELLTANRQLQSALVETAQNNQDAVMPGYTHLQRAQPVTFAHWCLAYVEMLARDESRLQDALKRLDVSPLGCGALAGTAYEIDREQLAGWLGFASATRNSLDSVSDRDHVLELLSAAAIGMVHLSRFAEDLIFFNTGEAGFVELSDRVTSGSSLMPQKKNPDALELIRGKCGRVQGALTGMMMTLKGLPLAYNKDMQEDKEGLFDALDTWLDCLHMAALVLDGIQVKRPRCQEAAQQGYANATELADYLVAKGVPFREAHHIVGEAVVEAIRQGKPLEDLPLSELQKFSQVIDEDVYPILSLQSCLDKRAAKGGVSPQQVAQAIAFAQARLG

[5] = target: T4, YhaJ (E. coli K-12, UniProt P67660 1-298)
T4 construct: YhaJ, E. coli K-12
T4 sequence (looked up): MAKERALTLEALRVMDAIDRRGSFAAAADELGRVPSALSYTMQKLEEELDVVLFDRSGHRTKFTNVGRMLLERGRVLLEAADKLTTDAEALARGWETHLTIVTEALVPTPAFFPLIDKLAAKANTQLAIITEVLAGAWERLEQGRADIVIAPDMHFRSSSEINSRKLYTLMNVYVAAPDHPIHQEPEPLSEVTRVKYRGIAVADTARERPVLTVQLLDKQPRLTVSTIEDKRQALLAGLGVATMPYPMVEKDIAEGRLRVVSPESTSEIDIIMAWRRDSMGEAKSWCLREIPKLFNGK

[6] = target: T5, RhaD (E. coli K-12, UniProt P32169 1-274)
T5 construct: RhaD, E. coli K-12
T5 sequence (looked up): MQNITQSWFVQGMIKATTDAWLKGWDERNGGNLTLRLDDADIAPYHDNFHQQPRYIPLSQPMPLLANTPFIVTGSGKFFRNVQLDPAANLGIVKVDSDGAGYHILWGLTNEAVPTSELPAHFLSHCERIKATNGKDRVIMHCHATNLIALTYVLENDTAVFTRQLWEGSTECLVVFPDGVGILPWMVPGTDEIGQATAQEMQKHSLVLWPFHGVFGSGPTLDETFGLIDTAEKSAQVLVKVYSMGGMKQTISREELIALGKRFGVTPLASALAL

Measured: binding result

T1 sequence (P28905 whole entry): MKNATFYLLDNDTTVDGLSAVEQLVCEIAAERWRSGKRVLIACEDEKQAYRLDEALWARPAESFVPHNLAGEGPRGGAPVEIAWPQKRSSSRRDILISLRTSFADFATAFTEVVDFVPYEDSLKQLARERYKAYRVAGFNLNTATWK

B1: N-terminal biotinylated Lactoferricin B (peptide, UniProt P24627 36-60, looked up)
peptide: Biotin-FKCRRWQWRMKKLGAPSITCVRRAF
modifications: ends and bridges not checked
notes: lactoferricin B (LfcinB), cationic antimicrobial peptide of 25 amino acids; also called biotinylated LfcinB; biotin-labeled LfcinB; source: bought: Kelowna Inc
binds: all assays above
